Test results: PMC11272584 (Nature Metabolism, 2024)
Residue numbers refer to the chain shown, from its start.

How the values were obtained:
GIPR R190Q (human) = molecular target: T1, GIPR R190Q (human) (UniProt P48546)
T1 sequence: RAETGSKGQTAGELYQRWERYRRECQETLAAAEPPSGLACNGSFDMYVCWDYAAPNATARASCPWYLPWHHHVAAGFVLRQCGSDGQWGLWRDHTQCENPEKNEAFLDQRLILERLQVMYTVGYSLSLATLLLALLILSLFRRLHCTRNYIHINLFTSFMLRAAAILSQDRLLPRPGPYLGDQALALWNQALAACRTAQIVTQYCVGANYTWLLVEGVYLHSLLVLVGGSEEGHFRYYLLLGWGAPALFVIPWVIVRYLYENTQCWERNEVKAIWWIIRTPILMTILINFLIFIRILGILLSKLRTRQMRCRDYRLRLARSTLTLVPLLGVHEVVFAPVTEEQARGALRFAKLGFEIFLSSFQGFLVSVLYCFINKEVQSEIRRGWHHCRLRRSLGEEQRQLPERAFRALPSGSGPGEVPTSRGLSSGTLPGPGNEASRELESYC

GIPR I378M (human) = molecular target: T2, GIPR I378M (human) (UniProt P48546)
T2 sequence: T1 sequence with Q169R, I357M

GIPR R336P (human) = molecular target: T3, GIPR R336P (human) (UniProt P48546)
T3 sequence: T1 sequence with Q169R, R315P

GIPR W90Lfs* (human) = molecular target: T4, GIPR W90Lfs* (human) (UniProt P48546)
T4 sequence (P48546 whole entry, looked up): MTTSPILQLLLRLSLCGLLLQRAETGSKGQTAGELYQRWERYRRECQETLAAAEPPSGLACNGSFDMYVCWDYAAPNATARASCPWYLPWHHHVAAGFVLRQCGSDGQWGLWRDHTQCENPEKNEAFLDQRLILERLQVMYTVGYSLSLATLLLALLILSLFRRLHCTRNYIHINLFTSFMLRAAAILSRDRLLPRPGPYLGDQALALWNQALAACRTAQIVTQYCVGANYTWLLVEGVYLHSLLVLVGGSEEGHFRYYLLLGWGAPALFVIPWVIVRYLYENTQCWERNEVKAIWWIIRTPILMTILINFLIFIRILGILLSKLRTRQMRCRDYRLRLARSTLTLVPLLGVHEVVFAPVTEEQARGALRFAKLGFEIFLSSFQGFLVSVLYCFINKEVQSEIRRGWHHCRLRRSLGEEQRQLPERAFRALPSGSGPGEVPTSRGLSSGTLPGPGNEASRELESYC

GIPR T168A (human) = molecular target: T5, GIPR T168A (human) (UniProt P48546)
T5 sequence: T1 sequence with T147A, Q169R

GIPR M67R (human) = molecular target: T6, GIPR M67R (human) (UniProt P48546)
T6 sequence: T1 sequence with M46R, Q169R

Substance: β-arrestin 2 (Rluc8-Arrestin-3-Sp1) (from UniProt P32121 1-409) (natural protein)
- β-arrestin 2 recruitment (BRET) on stimulation with GIP(1-42): logEC50 (Arrestin) (log M (inferred)) (GIPR R190Q (human)): -8.86
- β-arrestin 2 recruitment (BRET) on stimulation with GIP(1-42): logEC50 (Arrestin) (log M (inferred)) (GIPR I378M (human)): -9.13
- β-arrestin 2 recruitment (BRET) on stimulation with GIP(1-42): logEC50 (Arrestin) (log M (inferred)) (GIPR R336P (human)): -8.82
- β-arrestin 2 recruitment (BRET) on stimulation with GIP(1-42): logEC50 (Arrestin) (log M (inferred)) (GIPR W90Lfs* (human)): -10.8
- β-arrestin 2 recruitment (BRET) on stimulation with GIP(1-42): logEC50 (Arrestin) (log M (inferred)) (GIPR T168A (human)): -9.27
- β-arrestin 2 recruitment (BRET) on stimulation with GIP(1-42): logEC50 (Arrestin) (log M (inferred)) (GIPR M67R (human)): -8.16
